From US20240108766A1 (Bayer, published 2024)

T1: human LRRC15 extracellular domain with C-terminal His tag (human, UniProt Q8TF66 22-538)
T1 construct: Recombinant, made in HEK293; the entry holds the extracellular domain and the His tag; SPR analyte; also called TPP-1545; hLRRC15 CT-His
T1 sequence: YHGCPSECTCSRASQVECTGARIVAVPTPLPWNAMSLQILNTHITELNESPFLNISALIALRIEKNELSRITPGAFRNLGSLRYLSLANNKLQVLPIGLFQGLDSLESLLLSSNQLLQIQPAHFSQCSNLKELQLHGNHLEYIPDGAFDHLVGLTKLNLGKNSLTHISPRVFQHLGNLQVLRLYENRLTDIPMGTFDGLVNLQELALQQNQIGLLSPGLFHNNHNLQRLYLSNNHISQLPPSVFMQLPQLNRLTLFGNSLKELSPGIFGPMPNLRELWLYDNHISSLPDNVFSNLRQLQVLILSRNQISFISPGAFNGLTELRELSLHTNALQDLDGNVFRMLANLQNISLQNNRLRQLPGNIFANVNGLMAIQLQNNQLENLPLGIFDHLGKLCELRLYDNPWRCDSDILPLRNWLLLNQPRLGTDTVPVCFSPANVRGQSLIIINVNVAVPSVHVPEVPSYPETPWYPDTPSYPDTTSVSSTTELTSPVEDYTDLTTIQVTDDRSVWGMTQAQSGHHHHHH

T2: cynomolgus (Macaca fascicularis) LRRC15 extracellular domain with C-terminal His tag (cynomolgus monkey (Macaca fascicularis), UniProt Q8TF66 22-538 (human entry))
T2 construct: Recombinant, made in HEK293; the entry holds the extracellular domain and the His tag; SPR analyte; also called TPP-9046
T2 chain: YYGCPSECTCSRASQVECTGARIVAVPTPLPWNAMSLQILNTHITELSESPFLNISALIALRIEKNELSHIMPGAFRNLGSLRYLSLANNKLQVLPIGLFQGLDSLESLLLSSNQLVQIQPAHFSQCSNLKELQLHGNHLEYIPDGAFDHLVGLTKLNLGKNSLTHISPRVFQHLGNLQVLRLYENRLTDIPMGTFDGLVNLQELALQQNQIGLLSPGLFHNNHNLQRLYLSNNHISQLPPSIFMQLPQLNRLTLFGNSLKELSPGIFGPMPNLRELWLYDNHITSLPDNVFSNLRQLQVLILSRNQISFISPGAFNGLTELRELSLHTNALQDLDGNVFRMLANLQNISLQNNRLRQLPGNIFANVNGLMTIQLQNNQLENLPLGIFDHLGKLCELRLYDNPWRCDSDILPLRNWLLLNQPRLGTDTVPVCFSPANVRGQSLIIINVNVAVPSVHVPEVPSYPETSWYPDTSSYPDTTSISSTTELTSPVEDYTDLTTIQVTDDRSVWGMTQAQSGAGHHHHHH


Legend:
[1] = target: T1, human LRRC15 extracellular domain with …; test: SPR at 10-37°C (Example 3)
Experimental: (§1) To assess if anti-LRRC-15 antibodies show a difference in binding at different temperatures, binding assays were conducted using surface plasmon resonance (SPR). Binding assays were performed on a Biacore T200 instrument at temperatures of 10° C., 20° C., 25° C. and 37° C. with assay buffer HBS EP+, 1 mg/ml BSA (bovine serum albumine), 300 mM NaCl, 0.05% NaN₃. Antibodies were captured via anti-human Fc IgGs covalently amine coupled to a CM5 sensor chip and human LRRC15 was used as an analyte in a concentration series from 1.56-200 nM in multi cycle kinetics mode. Pre-experiments were conducted to have an equal capture level at each temperature. Obtained sensorgrams were fitted to a 1:1 Langmuir binding model to derive kinetic data.

[2] = target: T1, human LRRC15 extracellular domain with …; test: SPR Biacore T200, antibody captured, LRRC15 analyte, 20°C
Experimental: as §1

[3] = target: T1, human LRRC15 extracellular domain with …; test: calculated from SPR kd, 25°C
Experimental: as §1

[4] = target: T1, human LRRC15 extracellular domain with …; test: SPR Biacore T200, antibody captured, LRRC15 analyte, 25°C
Experimental: as §1

[5] = target: T2, cynomolgus (Macaca fascicularis) LRRC15 …; test: SPR (Example 6), overview table, repeats Table 9; head prints [M^-1]
Experimental: (§2) To assess the binding kinetics and affinity of anti-LRRC15 antibodies as well as their species cross-reactivity profile, binding assays were conducted using surface plasmon resonance (SPR). Binding assays were performed on a Biacore T200 instrument at 25° C. using assay buffer HBS EP+, 1 mg/ml BSA, 300 mM NaCl, 0.05% NaN3. Antibodies were captured via anti-human Fc IgGs covalently amine coupled to a CM5 sensor chip and human, mouse and cynomolgus LRRC15 were used as analytes in a concentration series from 1.56-200 nM in multi cycle kinetics mode. […] Obtained sensorgrams were fitted to a 1:1 Langmuir binding model to derive kinetic data.

[6] = target: T1, human LRRC15 extracellular domain with …; test: as above
Experimental: as §2

[7] = target: T1, human LRRC15 extracellular domain with …; test: calculated from SPR kd, 10°C
Experimental: as §1

[8] = target: T1, human LRRC15 extracellular domain with …; test: SPR Biacore T200, antibody captured, LRRC15 analyte, 10°C
Experimental: as §1

[9] = target: T1, human LRRC15 extracellular domain with …; test: binding of the purified IgG, method not given
[10] = target: T2, cynomolgus (Macaca fascicularis) LRRC15 …; test: SPR Biacore T200, 25°C, antibody captured, LRRC15 analyte
Experimental: as §2

[11] = target: T1, human LRRC15 extracellular domain with …; test: as above
Experimental: as §2

[12] = target: T1, human LRRC15 extracellular domain with …; test: SPR Biacore T200, antibody captured, LRRC15 analyte, 37°C
Experimental: as §1

[13] = target: T1, human LRRC15 extracellular domain with …; test: calculated from SPR kd, 20°C
Experimental: as §1

[14] = target: T1, human LRRC15 extracellular domain with …; test: SPR thermodynamics (van't Hoff/Eyring), 10-37°C
Experimental: as §1, with “Thermodynamics help to explain why an interaction is happening and what the driving forces for the interaction are. To” for “To”, “the thermodynamic parameters for anti-LRRC15” for “if anti-LRRC-15”, “antibodies” for “antibodies show a difference in binding at different temperatures,”, “BSA,” for “BSA (bovine serum albumine),”, “NaN3.” for “NaN₃.”, “data. Thermodynamic parameters were obtained using the integrated thermodynamics wizard in the Biacore T200 software. Van′t Hoff and Eyring plots were calculated and plotted and thermodynamic parameters were derived.” for “data.”

[15] = target: T1, human LRRC15 extracellular domain with …; test: calculated from SPR kd, 37°C
Experimental: as §1

Binder | Temperature dependent loss in binding affinity [1] | Kd [2] | Complex Half Life [3] | Kd [4] | Kd [5] | Kd [6] | Complex Half Life [7] | Kd [8] | Kd [9] | Kd [10] | Kd [11] | Kd [12] | Complex Half Life [13] | -TΔS [14] | ΔG^0 [14] | ΔH^0 [14] | Complex Half Life [15]
TPP-1633 (antibody, human IgG1, kappa, V domains shown, also called 060E-M016-G14-hIgG1) VH: EVQLLESGGGLVQPGGSLRLSCAASGFTFSGYMMQWVRQAPGKGLEWVSGIYPSGGYTNYADSVKGRFTISRDNSKNTLYLQMNSLRAEDTATYYCAREKASDLSGSYSEALDYWGQGTLVTVSS VL: DIQMTQSPDSLSASVGDRVTITCRASQDVGSWLAWYQQKPGKAPKLLIFAASSLESGIPSRFSGSGSGTDFTLTISSLQPEDFATYYCQQANGFPLTFGGGTKVEIKR | > 9 fold | 80 nM | 0.00833 h | 160 nM | 190 nM | 150 nM | 0.138 h | 18 nM | ~200 nM | 190 nM | 150 nM |  |  |  |  |  | 
TPP-17073 (antibody, human IgG1, kappa, V domains shown, also called 438H-M113-N15-hIgG1) VH: EVQLLESGGGLVQPGGSLRLSCAASGFTFSGYMMSWVRQAPGKGLEWVSGIYPSAGYTLYADSVKGRFTISRDNSKNTLYLQMNSLRAEDTAVYYCAREKAADLFGSYSEALDYWGQGTLVTVSS VL: DIQMTQSPDSLSASVGDRVTITCRASQDVGSWLAWYQQKPGKAPKLLIFAASYLESGIPSRFSGSGSGTDFTLTISSLQPEDFATYYCQQANGFPLTFGGGTKVEIKR |  |  |  |  | 0.18 nM | 0.21 nM |  |  |  | 0.18 nM | 0.21 nM |  |  |  |  |  | 
TPP-17074 (antibody, human IgG1, kappa, V domains shown, also called 438H-M161-K22-hIgG1) VH: EVQLLESGGGLVQPGGSLRLSCAASGFTFSGYMMSWVRQAPGKGLEWVSGIYPSGGYALYADSVKGRFTISRDNSKNTLYLQMNSLRAEDTAVYYCAREKAADLFGSYSEALDYWGQGTLVTVSS VL: DIQMTQSPDSLSASVGDRVTITCRASQDVGSWLAWYQQKPGKAPKLLIFAASYLESGIPSRFSGSGSGTDFTLTISSLQPEDFATYYCQQANGFPLTFGGGTKVEIKR | 33.3 fold | 0.14 nM | 1.6 h | 0.22 nM |  | 0.19 nM | 10.7 h | 0.057 nM |  |  | 0.19 nM | 1.9 nM | 3.16 h | 9.56 kcal/mol | -12.9 kcal/mol | -22.7 kcal/mol | 
TPP-14392 (antibody, human IgG1, kappa, V domains shown, also called 13612-rec05-hIgG1Kappa) VH: EVQLLESGGGLVQPGGSLRLSCAASGFTFSGYMMSWVRQAPGKGLEWVSGIYPSPGYTYYADSVKGRFTISRDNSKNTLYLQMNSLRAEDTAVYYCAREKASDLSGSYSEALDYWGQGTLVTVSS VL: DIQMTQSPDSLSASVGDRVTITCRASQDVGSWLAWYQQKPGKAPKLLIFAASYLESGIPSRFSGSGSGTDFTLTISSLQPEDFATYYCQQANGFPLTFGGGTKVEIKR | 56.9 fold | 2.9 nM | 0.567 h | 6.8 nM | 10 nM | 5.9 nM | 3.21 h |  |  | 10 nM | 5.9 nM | 91 nM | 1.48 h | 15.3 kcal/mol | -11 kcal/mol | -26.3 kcal/mol | 2.3 min
TPP-17405 (antibody, human IgG1, kappa, V domains shown, also called 438H-M345-F05-hIgG1Kappa) VH: EVQLVQSGAEVKKPGASVKVSCKASGYKFSSYWIEWVKQAPGQGLEWIGEILPGSDTTNYNEKFKDRATFTSDTSINTAYMELSRLRSDDTAVYYCARDRGNYRAWFQYWGQGTLVTVSS VL: DIQMTQSPSSLSASVGDRVTITCRASQRISSYLNWYQQKPGGAPKFLIYYASSLQSGVPSRFSGSGSGTDYTLTISSLQPEDFATYYCDQGLELPWTFGGGTKVEIKR |  |  |  |  | 0.78 nM | 0.86 nM |  |  |  | 0.78 nM | 0.86 nM |  |  |  |  |  | 
TPP-17419 (antibody, human IgG1, kappa, V domains shown, also called 438H-M307-H07-hIgG1Kappa) VH: EVQLVQSGAEVKKPGASVKVSCKASGYKFSSYWIEWVKQAPGQGLEWIGEILPGSDWTNYNEKFKDRATFTSDTSINTAYMELSRLRSDDTAVYYCARDRGNYRAWFQYWGQGTLVTVSS VL: DIQMTQSPSSLSASVGDRVTITCRISQSISSYLNWYQQKPGGAPKFLIYYASSLQSGVPSRFSGSGSGTDYTLTISSLQPEDFATYYCQQGLRLPWTFGGGTKVEIKR |  |  |  |  | 2.5 nM | 3.4 nM |  |  |  | 2.5 nM | 3.4 nM |  |  |  |  |  | 
TPP-17418 (antibody, human IgG1, kappa, V domains shown, also called 438H-M308-H05_B-hIgG1Kappa) VH: EVQLVQSGAEVKKPGASVKVSCKASGYKFSSYWIEWVKQAPGQGLEWIGEILPGSDWTNYNEKFKDRATFTSDTSINTAYMELSRLRSDDTAVYYCARDRGNYRAWFQYWGQGTLVTVSS VL: DIQMTQSPSSLSASVGDRVTITCRASQSISSYLNWYQQKPGGAPKFLIYYASSLQSGVPSRFSGSGSGTDYTLTISSLQPEDFATYYCQQGFSLPWTFGGGTKVEIKR |  |  |  |  | 0.99 nM | 1.1 nM |  |  |  | 0.99 nM | 1.1 nM |  |  |  |  |  | 
